Test results published in patent US20260274928A1.

Target: 9-strain panel of authentic SARS-CoV-2 viral isolates
Assay: cell-based or functional assay

B1: S2V29-v37.2 (antibody, V domains shown)
VH: EVQLVESGGSVVQPGRALRLSCAASGITFSSFGMYWVRQAPGKGLEWLGYIAYDGSDTYYADSVKGRFTISRDNSKNTLYLQMNSLRIEDTAVYYCAKDYYPLLSYYYGLDVWGQGTTVTVSS
VL: QSVLTQPRSVSGSPGQSVTISCTGTSSDVGAYNYVSWYQQHPGKAPKFMIYDVDQRPSGVPDRFSGSKSGNTASLIISGLQAEDEADYYCSSYAGSYIWVFGGGTQLTVL
B1 showed an IC50, authentic virus neutralization of 1.3 to 9.6 ng/mL and a median IC50, authentic virus neutralization of 2 ng/mL.
